Results taken from paper PMC4826291.

Biological target: BG505 SOSIP.664 gp140 trimer (HIV-1 (strain BG505)) (UniProt Q2N0S6)
Experiment: negative-stain EM

Substance: CH235 Fab
- stoichiometry N (Fabs per trimer): 1
